The results in this text go back to US20040175824A1.

The target in the test is human EPO receptor (EPO-Rc) (human) (UniProt P19235). Description: cell-based or functional assay.

Where “and” joins values, the source holds several entries; their conditions need not be identical. Equal entries are not always repeated.

Chain of UniProt P19235 (P19235 25-508): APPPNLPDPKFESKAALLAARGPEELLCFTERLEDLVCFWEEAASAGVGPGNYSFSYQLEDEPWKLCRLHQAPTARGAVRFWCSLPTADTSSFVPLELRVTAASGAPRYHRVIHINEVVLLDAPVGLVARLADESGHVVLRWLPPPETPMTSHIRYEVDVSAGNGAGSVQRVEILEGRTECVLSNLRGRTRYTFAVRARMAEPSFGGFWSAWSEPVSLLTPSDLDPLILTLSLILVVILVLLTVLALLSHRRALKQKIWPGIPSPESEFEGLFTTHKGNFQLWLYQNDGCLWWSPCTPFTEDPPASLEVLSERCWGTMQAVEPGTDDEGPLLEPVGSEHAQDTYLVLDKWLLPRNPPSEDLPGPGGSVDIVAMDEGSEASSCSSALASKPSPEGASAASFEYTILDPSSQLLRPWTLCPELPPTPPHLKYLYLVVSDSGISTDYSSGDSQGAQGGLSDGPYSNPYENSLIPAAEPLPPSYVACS

On to “Recombinant human EPO (rHuEPO) (from UniProt P01588 28-192) (ligand)”, for which the proliferation of the 32D1.9 cells (MTT, OD 550 nm); in vitro biological activity on a molar basis was 3e+06 units/µmole and 4e+06 units/µmole.
